The source of these data is patent publication US20240409645A1.

One test has as its target T1, mouse IL-2Rγ (mouse) (UniProt P34902).
T1 sequence (looked up): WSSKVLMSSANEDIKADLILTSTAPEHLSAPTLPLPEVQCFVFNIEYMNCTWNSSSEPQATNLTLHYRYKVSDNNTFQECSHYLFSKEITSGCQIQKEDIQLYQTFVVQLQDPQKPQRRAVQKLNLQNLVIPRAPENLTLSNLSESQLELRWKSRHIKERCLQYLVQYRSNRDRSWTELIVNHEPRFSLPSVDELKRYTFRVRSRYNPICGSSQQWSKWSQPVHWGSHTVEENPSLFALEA
Kind of test: P.E. binding ELISA.

The target in test [1] is cynomolgus monkey IL-2Rγ/CD132 subunit (cynomolgus monkey). Kind of test: ELISA, monovalent VHH-hFc. In general terms: An ELISA detects its analyte on a solid surface through an enzyme-linked reagent.
cynomolgus monkey IL-2Rγ/CD132 subunit (cynomolgus monkey), sequence (chain, as listed by the source): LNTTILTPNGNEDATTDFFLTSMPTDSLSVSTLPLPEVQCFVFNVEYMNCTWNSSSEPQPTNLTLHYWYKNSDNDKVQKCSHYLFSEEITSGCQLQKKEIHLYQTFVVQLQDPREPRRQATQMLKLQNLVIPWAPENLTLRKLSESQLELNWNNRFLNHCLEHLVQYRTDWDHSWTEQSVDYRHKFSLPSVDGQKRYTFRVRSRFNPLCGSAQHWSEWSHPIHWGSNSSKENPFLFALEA
The target of test [2] is T2, human common cytokine receptor γ-chain (γc; IL-2Rγ; CD132), recombinant protein (human) (UniProt P31785).
T2 sequence: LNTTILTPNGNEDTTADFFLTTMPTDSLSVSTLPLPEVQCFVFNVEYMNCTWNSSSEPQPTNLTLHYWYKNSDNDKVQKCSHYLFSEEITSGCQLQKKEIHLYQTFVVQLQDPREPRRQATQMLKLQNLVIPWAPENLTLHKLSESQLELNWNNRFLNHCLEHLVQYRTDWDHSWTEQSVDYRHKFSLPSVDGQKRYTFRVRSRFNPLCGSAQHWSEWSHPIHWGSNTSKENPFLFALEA
The test is described as follows: ELISA, monovalent VHH-hFc.

Test [3] addresses cynomolgus monkey IL-2Rγ/CD132 subunit (cynomolgus monkey). The test is described as follows: ELISA, monovalent; EC50 cyno vs human subunit.
The target in a further test is T3, mouse IL-2Rβ (mouse) (UniProt P16297).
T3 sequence (looked up): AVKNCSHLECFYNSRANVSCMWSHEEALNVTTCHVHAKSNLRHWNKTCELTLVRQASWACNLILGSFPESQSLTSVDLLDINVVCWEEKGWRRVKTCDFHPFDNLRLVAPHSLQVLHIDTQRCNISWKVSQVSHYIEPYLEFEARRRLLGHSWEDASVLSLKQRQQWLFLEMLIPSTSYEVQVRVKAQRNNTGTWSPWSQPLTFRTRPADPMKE
Kind of test: P.E. binding ELISA, mouse IL-2Rβ coated.

For test [4], the target named is T4, mouse common cytokine receptor γ-chain (IL-2Rγ) (mouse) (UniProt P34902).
T4 sequence (looked up): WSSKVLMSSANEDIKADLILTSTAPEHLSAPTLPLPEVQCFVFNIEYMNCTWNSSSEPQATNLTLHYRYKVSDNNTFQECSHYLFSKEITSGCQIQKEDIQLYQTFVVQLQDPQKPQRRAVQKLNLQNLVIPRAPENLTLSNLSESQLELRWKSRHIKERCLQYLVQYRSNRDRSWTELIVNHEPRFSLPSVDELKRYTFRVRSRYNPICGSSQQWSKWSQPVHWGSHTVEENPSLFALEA
The test is described as follows: P.E. binding ELISA.

B1: 35-MP07G01 VHH (periplasmic extract) (VHH)
VHH: QVQLQESGGGLVQGGGSLRLSCAASGGIFSSYAMGWFRQAPGKEREFVAAISRSGRSTNYADSVKGRFTISRDNAKSTVYLQMNSLKPEETAVYYCAAGRYYNSAYDPSPGDFGSWGHGTQVTVSS
Regarding B1, the OD450 nm in the test with mouse IL-2Rγ (mouse) came out at 0.045 OD450 nm.

B2: 38-MP07A11 VHH-hFc, monospecific monovalent (Fc fusion, part only; not given: Both Fc arms and linker, not shown: another chain or arm of the molecule; a dimerising Fc or GST; small tags and cut ends)
VHH: QVQLVESGGGLVQAGGSLRLSCAASGRSLSRDAMGWFRQAPGKEREFVAVMSWGGDTFYTDSVEGRFTFSRDNAKNAVYLEMNDLQPEDTAVYYCAAAPTSFATTAYSSSNSYSYWGRGTQVTVSS
As for B2, the EC50 in test [1] amounted to 0.16 nM; in test [2], 0.107 nM. Further, in test [3], the Fold change stood at 1.5 fold.

B3: 32-MP04A08 VHH (periplasmic extract) (VHH)
VHH: QVQLVESGGGLVQAGGSLRLSCAASGRTFGSTAVGWFRQVPGKEREFVSAINRSGSATTYADSVKGRFTISRDNAKNTVYLQMNSLTPEDTGVYYCAADSLPYGRPYYFQRSAGEYDYWGQGTQVTVSS
Molecule B3 registered an OD450 nm in the test with mouse IL-2Rγ (mouse) of 0.05 OD450 nm.

B4: 29-MP04H02 VHH (periplasmic extract) (VHH)
VHH: QVQLVESGGGLVQAGGSLRLACVASGLTFDNYYMGWFRQAPGKEREFVAGIIWNGDHTAYADSIKGRFTISRDNAKNTAYLRMNSLKPEDTAVYYCAATFWIERATTPDIGQYAYWGQGTQVTVSS
In the test with mouse IL-2Rγ (mouse), B4 showed an OD450 nm of 0.05 OD450 nm.

B5: 29-MP04H02 VHH-hFc, monospecific monovalent (Fc fusion, part only; not given: Both Fc arms and linker, not shown: another chain or arm of the molecule; a dimerising Fc or GST; large carriers; small tags and cut ends)
VHH: QVQLVESGGGLVQAGGSLRLACVASGLTFDNYYMGWFRQAPGKEREFVAGIIWNGDHTAYADSIKGRFTISRDNAKNTAYLRMNSLKPEDTAVYYCAATFWIERATTPDIGQYAYWGQGTQVTVSS
On to B5, for which the EC50 in test [1] was 0.534 nM; in test [2], 0.683 nM. Besides, the Fold change in test [3] came out at 0.8 fold.

B6: FJ1427 P035MP06A08 (VHH)
VHH: EVQLVESGGGLVQAGESLRLSCAASGQYFSTYSMAWFRRTPGKEREFVTIISESGGIKEYVDSVKGRFTVSRDNAKNTVYLQMNSLKPEDTAVYYCAAARDWFARNEYQYDYWGQGTQVTVSS
With B6, the OD450 nm (P.E. binding ELISA) with mouse IL-2Rβ (mouse) was 0.047 OD450 nm.

B7: 28-MP04D02 VHH-hFc, monospecific monovalent (Fc fusion, part only; not given: Both Fc arms and linker, not shown: another chain or arm of the molecule; a dimerising Fc or GST; large carriers; small tags and cut ends)
VHH: QVQLVESGGGLVQAGGSLRLSCAASGRTLSRYAMGWFRQAPGKEREFVTANSWGGDTYYADSVQGRFTFSRDNAKNTVYLQMNSLQPEDTAVYYCAAAPTSFATTAYSGSNSYAYWGQGTQVTVSS
As to B7, the EC50 in test [1] stood at 0.723 nM; in test [2], 0.62 nM. This molecule showed a Fold change in test [3] of 1.2 fold.

B8: 37-MP07F09 VHH-hFc, monospecific monovalent (Fc fusion, part only; not given: Both Fc arms and linker, not shown: another chain or arm of the molecule; a dimerising Fc or GST; small tags and cut ends)
VHH: QVQLVESGGGLVQAGGSLRLSCAASGRTLSRYAMGWFRQAPGKEREYVAIDSWGGDTFYADSVEGRFTFSRDNAKNEVYLQMNSLQPEDTAVYYCAGAPTSFATTAYSSSNSYRYWGQGTQVTVSS
For B8, the results for the EC50 in test [1] and in test [2] were 0.097 nM and 0.081 nM, respectively. The same molecule gave a Fold change in test [3] of 1.2 fold.

B9: 27-MP04G01 VHH (periplasmic extract) (VHH)
VHH: QVQLVESGGGLVQAGGSLTLSCAAPGRTFGTDVVGWFRQAPGKEREFVASISRSGDGIYYDDSVKGRFTISRNNAWNTVNLQMNSLKVEDTAVYYCAAGDGWSTYDYWGQGTQVTVSS
In the test with mouse IL-2Rγ (mouse), B9 gave an OD450 nm of 0.048 OD450 nm.

B10: 27-MP04G01 VHH-hFc, monospecific monovalent (Fc fusion, part only; not given: Both Fc arms and linker, not shown: another chain or arm of the molecule; a dimerising Fc or GST; large carriers; small tags and cut ends)
VHH: QVQLVESGGGLVQAGGSLTLSCAAPGRTFGTDVVGWFRQAPGKEREFVASISRSGDGIYYDDSVKGRFTISRNNAWNTVNLQMNSLKVEDTAVYYCAAGDGWSTYDYWGQGTQVTVSS
In the case of B10, the results for the EC50 in test [1] and in test [2] were 0.153 nM and 0.155 nM, respectively. The same molecule returned a Fold change in test [3] of 1 fold.

B11: 34-MP04A12 VHH-hFc, monospecific monovalent (Fc fusion, part only; not given: Both Fc arms and linker, not shown: another chain or arm of the molecule; a dimerising Fc or GST; large carriers; small tags and cut ends)
VHH: QVQLVESGGGLVQAGSSLRLSCAASGRTLSRLAMGWFRQAPGKEREFVAVNSWGGDTFYADSVEGRFTYSRDNAKSAVYLQMNSLQPEDTAVYYCAAAPTSFATTAYSSSNSYAYWGQGAQVTVSS
As to B11, the EC50 worked out at 0.158 nM in test [1] and 0.132 nM in test [2]. The molecule further registered a Fold change in test [3] of 1.2 fold.

B12: FJ1427_P035MP06F09 (VHH)
VHH: QVQLVESGGGLVQAGGSLTLSCAASGRAFSNYPVGWFRQAPGKEREFVAAITWLSGSTLYADSVEGRFTISRDNAKNTVYLLMSSLKPEDTALYFCAAALKTITRGQNDYSYWGQGTQVTVSS
Molecule B12 showed an OD450 nm (P.E. binding ELISA) with mouse IL-2Rβ (mouse) of 0.046 OD450 nm.

B13: FJ1427_P035MP04F12 (VHH)
VHH: QVQLQESGGGWVQVGESLRLSCVPSGRTFVSGIMGWFRQAPGKEREFVARIILNNNSTRYTDSVKGRFTISRDSAKNTMYLQMNTLRPEDTAVYYCAARDRYGSGNSLSPSAYDYWGQGTQVTVSS
In test [4], B13 had a PE binding ELISA OD of 0.049 OD450 nm.

B14: FJ1427_P035MP07C02 (VHH)
VHH: EVQLVESGGGWVQVGESLRLSCAPSGRTFVSGIMGWFRQTPGKEREFVARIILNNNSTRYTDSVKGRFTISRDSAKNTMYLQMNTLRPEDTAVYYCAARDRYGSGNSLSPSAYDYWGQGTQVTVSS
In test [4], B14 gave a PE binding ELISA OD of 0.044 OD450 nm.

For orientation: EC50 means the concentration at which the effect is half-maximal.
